Measurements from US7951595B2, “Methods for screening modulators of SLC17-type anion transport activity” (National University Corporation Okayama University, priority 2007, dated 2011).

T1: human SLC17A9 (Homo sapiens, UniProt Q9BYT1, N228S)
T1 construct: His6 (from pDEST10 vector); made in house; host or cells: insect cells, baculovirus system (Sf9 named for virus production)
T1 sequence (Q9BYT1 1-430 isoform Q9BYT1-2 N222S): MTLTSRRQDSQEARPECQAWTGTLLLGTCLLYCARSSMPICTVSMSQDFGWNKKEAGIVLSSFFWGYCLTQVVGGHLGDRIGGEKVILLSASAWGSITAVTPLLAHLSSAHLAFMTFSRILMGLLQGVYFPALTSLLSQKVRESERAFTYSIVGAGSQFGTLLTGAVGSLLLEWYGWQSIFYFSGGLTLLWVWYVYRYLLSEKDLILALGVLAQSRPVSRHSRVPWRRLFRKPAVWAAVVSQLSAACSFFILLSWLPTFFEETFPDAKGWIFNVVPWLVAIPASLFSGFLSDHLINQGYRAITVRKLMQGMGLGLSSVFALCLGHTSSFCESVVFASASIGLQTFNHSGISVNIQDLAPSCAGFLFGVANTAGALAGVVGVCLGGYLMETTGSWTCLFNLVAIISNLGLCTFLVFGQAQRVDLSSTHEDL

B1: Sialin: SLC17 family transporter protein, gene SLC17A5 (protein, UniProt Q9NRA2 1-495, looked up)
Sialin: MRSPVRDLARNDGEESTDRTPLLPGAPRAEAAPVCCSARYNLAILAFFGFFIVYALRVNLSVALVDMVDSNTTLEDNRTSKACPEHSAPIKVHHNQTGKKYQWDAETQGWILGSFFYGYIITQIPGGYVASKIGGKMLLGFGILGTAVLTLFTPIAADLGVGPLIVLRALEGLGEGVTFPAMHAMWSSWAPPLERSKLLSISYAGAQLGTVISLPLSGIICYYMNWTYVFYFFGTIGIFWFLLWIWLVSDTPQKHKRISHYEKEYILSSLRNQLSSQKSVPWVPILKSLPLWAIVVAHFSYNWTFYTLLTLLPTYMKEILRFNVQENGFLSSLPYLGSWLCMILSGQAADNLRAKWNFSTLCVRRIFSLIGMIGPAVFLVAAGFIGCDYSLAVAFLTISTTLGGFCSSGFSINHLDIAPSYAGILLGITNTFATIPGMVGPVIAKSLTPDNTVGEWQTVFYIAAAINVFGAIFFTLFAKGEVQNWALNDHHGHRH
B2: SLC17A9 protein: purified SLC17A9 membrane protein, vesicular nucleotide transporter (protein, UniProt Q9BYT1 1-436, looked up)
Voltage-gated purine …: MQPPPDEARRDMAGDTQWSRPECQAWTGTLLLGTCLLYCARSSMPICTVSMSQDFGWNKKEAGIVLSSFFWGYCLTQVVGGHLGDRIGGEKVILLSASAWGSITAVTPLLAHLSSAHLAFMTFSRILMGLLQGVYFPALTSLLSQKVRESERAFTYSIVGAGSQFGTLLTGAVGSLLLEWYGWQSIFYFSGGLTLLWVWYVYRYLLSEKDLILALGVLAQSRPVSRHNRVPWRRLFRKPAVWAAVVSQLSAACSFFILLSWLPTFFEETFPDAKGWIFNVVPWLVAIPASLFSGFLSDHLINQGYRAITVRKLMQGMGLGLSSVFALCLGHTSSFCESVVFASASIGLQTFNHSGISVNIQDLAPSCAGFLFGVANTAGALAGVVGVCLGGYLMETTGSWTCLFNLVAIISNLGLCTFLVFGQAQRVDLSSTHEDL
B3: NPT1: SLC17 family transporter protein, gene SLC17A1 (protein, UniProt Q14916 1-467, looked up)
Sodium-dependent phosphate …: MQMDNRLPPKKVPGFCSFRYGLSFLVHCCNVIITAQRACLNLTMVVMVNSTDPHGLPNTSTKKLLDNIKNPMYNWSPDIQGIILSSTSYGVIIIQVPVGYFSGIYSTKKMIGFALCLSSVLSLLIPPAAGIGVAWVVVCRAVQGAAQGIVATAQFEIYVKWAPPLERGRLTSMSTSGFLLGPFIVLLVTGVICESLGWPMVFYIFGACGCAVCLLWFVLFYDDPKDHPCISISEKEYITSSLVQQVSSSRQSLPIKAILKSLPVWAISTGSFTFFWSHNIMTLYTPMFINSMLHVNIKENGFLSSLPYLFAWICGNLAGQLSDFFLTRNILSVIAVRKLFTAAGFLLPAIFGVCLPYLSSTFYSIVIFLILAGATGSFCLGGVFINGLDIAPRYFGFIKACSTLTGMIGGLIASTLTGLILKQDPESAWFKTFILMAAINVTGLIFYLIVATAEIQDWAKEKQHTRL
B4: VGLUT2: SLC17 family transporter protein, gene SLC17A6 (protein, UniProt Q9P2U8 1-582, looked up)
Vesicular glutamate …: MESVKQRILAPGKEGLKNFAGKSLGQIYRVLEKKQDTGETIELTEDGKPLEVPERKAPLCDCTCFGLPRRYIIAIMSGLGFCISFGIRCNLGVAIVDMVNNSTIHRGGKVIKEKAKFNWDPETVGMIHGSFFWGYIITQIPGGYIASRLAANRVFGAAILLTSTLNMLIPSAARVHYGCVIFVRILQGLVEGVTYPACHGIWSKWAPPLERSRLATTSFCGSYAGAVIAMPLAGILVQYTGWSSVFYVYGSFGMVWYMFWLLVSYESPAKHPTITDEERRYIEESIGESANLLGAMEKFKTPWRKFFTSMPVYAIIVANFCRSWTFYLLLISQPAYFEEVFGFEISKVGMLSAVPHLVMTIIVPIGGQIADFLRSKQILSTTTVRKIMNCGGFGMEATLLLVVGYSHTRGVAISFLVLAVGFSGFAISGFNVNHLDIAPRYASILMGISNGVGTLSGMVCPIIVGAMTKNKSREEWQYVFLIAALVHYGGVIFYAIFASGEKQPWADPEETSEEKCGFIHEDELDEETGDITQNYINYGTTKSYGATTQANGGWPSGWEKKEEFVQGEVQDSHSYKDRVDYS
B5: VGLUT1: SLC17 family transporter protein, gene SLC17A7 (protein, UniProt Q9P2U7 1-560, looked up)
Vesicular glutamate …: MEFRQEEFRKLAGRALGKLHRLLEKRQEGAETLELSADGRPVTTQTRDPPVVDCTCFGLPRRYIIAIMSGLGFCISFGIRCNLGVAIVSMVNNSTTHRGGHVVVQKAQFSWDPETVGLIHGSFFWGYIVTQIPGGFICQKFAANRVFGFAIVATSTLNMLIPSAARVHYGCVIFVRILQGLVEGVTYPACHGIWSKWAPPLERSRLATTAFCGSYAGAVVAMPLAGVLVQYSGWSSVFYVYGSFGIFWYLFWLLVSYESPALHPSISEEERKYIEDAIGESAKLMNPLTKFSTPWRRFFTSMPVYAIIVANFCRSWTFYLLLISQPAYFEEVFGFEISKVGLVSALPHLVMTIIVPIGGQIADFLRSRRIMSTTNVRKLMNCGGFGMEATLLLVVGYSHSKGVAISFLVLAVGFSGFAISGFNVNHLDIAPRYASILMGISNGVGTLSGMVCPIIVGAMTKHKTREEWQYVFLIASLVHYGGVIFYGVFASGEKQPWAEPEEMSEEKCGFVGHDQLAGSDDSEMEDEAEPPGAPPAPPPSYGATHSTFQPPRPPPPVRDY
B6: VGLUT3: SLC17 family transporter protein, gene SLC17A8 (protein, UniProt Q8NDX2 1-589, looked up)
Vesicular glutamate …: MPFKAFDTFKEKILKPGKEGVKNAVGDSLGILQRKIDGTTEEEDNIELNEEGRPVQTSRPSPPLCDCHCCGLPKRYIIAIMSGLGFCISFGIRCNLGVAIVEMVNNSTVYVDGKPEIQTAQFNWDPETVGLIHGSFFWGYIMTQIPGGFISNKFAANRVFGAAIFLTSTLNMFIPSAARVHYGCVMCVRILQGLVEGVTYPACHGMWSKWAPPLERSRLATTSFCGSYAGAVVAMPLAGVLVQYIGWSSVFYIYGMFGIIWYMFWLLQAYECPAAHPTISNEEKTYIETSIGEGANVVSLSKFSTPWKRFFTSLPVYAIIVANFCRSWTFYLLLISQPAYFEEVFGFAISKVGLLSAVPHMVMTIVVPIGGQLADYLRSRQILTTTAVRKIMNCGGFGMEATLLLVVGFSHTKGVAISFLVLAVGFSGFAISGFNVNHLDIAPRYASILMGISNGVGTLSGMVCPLIVGAMTRHKTREEWQNVFLIAALVHYSGVIFYGVFASGEKQEWADPENLSEEKCGIIDQDELAEEIELNHESFASPKKKMSYGATSQNCEVQKKEWKGQRGATLDEEELTSYQNEERNFSTIS

Tests used:
human SLC17A9 = molecular target: T1, human SLC17A9; experiment: Nucleotide transport by human SLC17A9 reconstituted proteoliposomes (valinomycin-induced membrane potential, radiolabelled substrate); assay type: biochemical
Experimental: (§1) 10 μg of purified SLC17A9 and 0.5 mg of soybean-derived lipids were mixed and incubated at −80° C. for 5 minutes or more. The mixture was thawed quickly by holding the tube in the hands, and was diluted 60-fold with a buffer solution containing 20 mM MOPS-Tris (pH 7.0), 0.15M sodium acetate, 2 mM magnesium acetate and 0.5 mM DTT. This dilution was centrifuged at 200,000×g at 4° C. for one hour, the supernatant was discarded, and the precipitate was resuspended in a buffer solution containing 20 mM MOPS-Tris (pH 7.0), 0.15M sodium acetate, 2 mM magnesium acetate and 0.5 mM DTT, to obtain SLC17A9 reconstituted proteoliposomes. As a control, liposomes without SLC17A9 were used.
The nucleotide transport activity was measured by the following procedure. The reconstituted proteoliposomes were incubated in a buffer solution containing 20 mM MOPS-Tris (pH 7.0), 0.15M potassium acetate, 2 mM magnesium acetate and 4 mM potassium chloride, at 27° C. for 2 minutes, and valinomycin was added thereto to a final concentration of 2 μM. The mixture was incubated for further 2 minutes. The point of addition of 0.1 mM [α-^32P]ATP (3.7 GBq/mmol) was defined as the initiation of activity measurement. At a predetermined time point, 130 μL of the reaction liquid was recovered and centrifuged through a Sephadex G-50 (fine) spin column at 760×g for 2 minutes. The uptake of ATP was measured by measuring the radioactivity included in the reaction liquid that had passed through the column using a liquid scintillation counter. In the measurement of the transport activity for ADP and GTP, [2,8-^3H]ADP (0.37 GBq/mmol) and [α-^32P]GTP (3.7 GBq/mmol) were used instead of ATP as the substrate.
In an experiment for an inhibitor, a predetermined concentration of an inhibitor was added upon incubation of the proteoliposomes.

[1] = test system: SLC17 family transporter proteins; experiment: ATP uptake by other SLC17 family proteins reconstituted like SLC17A9; assay type: biochemical; conditions: 0.1 mM [α-32P]ATP, uptake after 2 minutes, relative to SLC17A9 protein
Experimental: as §1
The nucleotide transport activity was measured by the following procedure. The reconstituted proteoliposomes were incubated in a buffer solution containing 20 mM MOPS-Tris (pH 7.0), 0.15M potassium acetate, 2 mM magnesium acetate and 4 mM potassium chloride, at 27° C. for 2 minutes, and valinomycin was added thereto to a final concentration of 2 μM. The mixture was incubated for further 2 minutes. […] At a predetermined time point, 130 μL of the reaction liquid was recovered and centrifuged through a Sephadex G-50 (fine) spin column at 760×g for 2 minutes.
Each of the transporter proteins that belong to the SLC17 family was purified in the same manner as in the case of SLC17A9, and was reconstituted according to the technique of Example 11.

| Molecule | ATP Transport (%) [1] [%] | also measured |
| --- | --- | --- |
| CC(C)[C@@H]1NC(=O)[C@H](C)OC(=O)[C@@H](C(C)C)NC(=O)[C@@H](C(C)C)OC(=O)[C@H](C(C)C)NC(=O)[C@H](C)OC(=O)[C@@H](C(C)C)NC(=O)[C@@H](C(C)C)OC(=O)[C@H](C(C)C)NC(=O)[C@H](C)OC(=O)[C@@H](C(C)C)NC(=O)[C@@H](C(C)C)OC1=O [valinomycin] |  | effect on uptake of radioactive ATP (human SLC17A9; ATP 100 μM, valinomycin 2 μM, FIG. 13(B)): activated |
| Cl [chloride ions] |  | chloride ion concentration at which ATP uptake activity reached a steady state (human SLC17A9; chloride ions at various concentrations, FIG. 14): 4 mM |
| C=C1[C@@H]2CC[C@H]3[C@]4(C)C[C@H](O[C@@H]5O[C@H](CO)[C@@H](OS(=O)(=O)O)[C@H](OS(=O)(=O)O)[C@H]5OC(=O)CC(C)C)C[C@@H](C(=O)O)[C@H]4CC[C@]3(C2)[C@H]1O [atractyloside] |  | effect of addition on the ATP uptake (human SLC17A9; atractyloside 200 μM, with or without Mg2+, FIG. 17(C)): Only when Mg^2+ was present, the ATP uptake was inhibited |
| Cc1cc(-c2ccc(/N=N/c3ccc4c(S(=O)(=O)O)cc(S(=O)(=O)O)c(N)c4c3O)c(C)c2)ccc1/N=N/c1ccc2c(S(=O)(=O)O)cc(S(=O)(=O)O)c(N)c2c1O [Evans Blue] |  | IC50 (human SLC17A9; SLC17A9 reconstituted proteoliposomes, FIG. 17B): 40 nM |
| B1 | 2.1 ± 0.8 |  |
| B2 | 100.0 |  |
| B3 | 2.0 ± 1.1 |  |
| B4 | 0.1 ± 0.2 |  |
| B5 | 1.7 ± 0.7 |  |
| B6 | 7.1 ± 2.1 |  |
